Experiments:
[1] = target: T1, Cynomolgus CD39 antigen (cynomolgus, UniProt A0A7N9DGH8 38-478); experiment: SPR (Biacore 8K), species cross test, antibody captured on anti-human capture CM5 chip, antigen as analyte, 1:1 model
T1 construct: Antigen used as analyte in SPR
T1 sequence: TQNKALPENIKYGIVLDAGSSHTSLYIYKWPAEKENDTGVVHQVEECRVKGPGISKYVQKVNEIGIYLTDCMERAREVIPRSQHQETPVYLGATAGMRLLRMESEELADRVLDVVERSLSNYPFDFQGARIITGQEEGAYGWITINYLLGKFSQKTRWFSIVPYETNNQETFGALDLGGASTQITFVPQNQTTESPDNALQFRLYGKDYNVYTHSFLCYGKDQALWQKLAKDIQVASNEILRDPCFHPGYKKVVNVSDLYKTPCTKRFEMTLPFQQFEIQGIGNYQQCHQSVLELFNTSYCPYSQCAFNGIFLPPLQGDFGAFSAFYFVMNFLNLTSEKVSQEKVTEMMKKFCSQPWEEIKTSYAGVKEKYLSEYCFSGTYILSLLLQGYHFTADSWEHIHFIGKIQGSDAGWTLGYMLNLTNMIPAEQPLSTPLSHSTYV
Procedure: (§1) The experimental method is as follows:
(§2) An Anti-Human Capture-CM5 chip (GE, #BR-1005-30) was prepared using coupling methods of a Human Antibody Capture Kit (GE, #BR-1008-39) and an amino coupling kit (GE, BR-1000-50). The chip was equilibrated at room temperature for about 20-30 min and loaded into a Biacore 8K instrument. The antigen and antibody were diluted to an experimental working concentration using an equilibration buffer. The antigen was diluted with an equilibrium buffer to 50 nM, and then diluted three-fold for seven concentration gradients, and two zero concentrations (i.e., the equilibrium buffer) and one repeat concentration (typically the lowest concentration repeat) were set. Experimental analysis was performed on 10 antigen concentrations (2 zero concentrations, 7 gradient concentrations, and 1 repeated concentration) in a cyclic manner according to an order of antibody, antigen, and regeneration. The antigen injection flow rate was 30 μL/min, the binding time was 120 s, and the dissociation time was 600 s. Following the analysis, the data was analyzed using the corresponding analysis program to confirm that there was no obvious reference binding. Using Kinetics and a 1:1 binding model, the data was fit to obtain the kinetic related parameters Ka, Kd, and KD values of the bispecific antibodies.

[2] = target: T2, Human CD73 antigen (human, UniProt P21589 27-547, limits assumed); experiment: as above
T2 construct: Antigen used as analyte in SPR; also called NT5E
T2 sequence (looked up): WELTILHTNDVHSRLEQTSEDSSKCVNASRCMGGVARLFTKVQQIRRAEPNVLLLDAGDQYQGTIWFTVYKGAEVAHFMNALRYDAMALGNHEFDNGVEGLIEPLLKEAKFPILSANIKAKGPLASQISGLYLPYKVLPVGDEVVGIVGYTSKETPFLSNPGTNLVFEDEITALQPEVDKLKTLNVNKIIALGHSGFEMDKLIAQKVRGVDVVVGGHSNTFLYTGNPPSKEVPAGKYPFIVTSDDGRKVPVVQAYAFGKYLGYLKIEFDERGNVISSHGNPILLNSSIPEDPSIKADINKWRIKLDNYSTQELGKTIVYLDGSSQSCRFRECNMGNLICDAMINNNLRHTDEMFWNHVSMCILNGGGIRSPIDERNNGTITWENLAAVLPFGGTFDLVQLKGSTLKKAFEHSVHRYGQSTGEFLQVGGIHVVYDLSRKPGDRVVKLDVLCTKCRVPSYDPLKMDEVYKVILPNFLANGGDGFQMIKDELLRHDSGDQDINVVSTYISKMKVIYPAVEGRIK
Procedure: as §1, §2

[3] = target: T3, Human CD39 antigen (human, UniProt P49961 38-478); experiment: as above
T3 construct: Antigen used as analyte in SPR; also called ENTPD1
T3 sequence (looked up): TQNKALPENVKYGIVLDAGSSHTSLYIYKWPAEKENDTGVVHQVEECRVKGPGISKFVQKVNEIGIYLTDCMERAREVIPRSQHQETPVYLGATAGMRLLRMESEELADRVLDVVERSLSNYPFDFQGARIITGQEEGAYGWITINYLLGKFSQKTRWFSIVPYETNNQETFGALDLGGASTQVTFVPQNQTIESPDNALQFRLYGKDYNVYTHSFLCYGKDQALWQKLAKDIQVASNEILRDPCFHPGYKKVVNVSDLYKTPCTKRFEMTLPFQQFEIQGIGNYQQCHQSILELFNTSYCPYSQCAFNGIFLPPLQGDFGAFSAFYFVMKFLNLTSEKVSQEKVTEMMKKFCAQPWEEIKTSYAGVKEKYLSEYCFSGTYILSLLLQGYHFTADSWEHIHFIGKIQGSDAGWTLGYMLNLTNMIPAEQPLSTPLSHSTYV
Procedure: as §1, §2

[4] = target: T4, Human CD39 on CHOK1-huCD39-10B6 cells overexpressing CD39 (human, UniProt P49961 1-510); experiment: cell-based or functional assay
T4 sequence (looked up): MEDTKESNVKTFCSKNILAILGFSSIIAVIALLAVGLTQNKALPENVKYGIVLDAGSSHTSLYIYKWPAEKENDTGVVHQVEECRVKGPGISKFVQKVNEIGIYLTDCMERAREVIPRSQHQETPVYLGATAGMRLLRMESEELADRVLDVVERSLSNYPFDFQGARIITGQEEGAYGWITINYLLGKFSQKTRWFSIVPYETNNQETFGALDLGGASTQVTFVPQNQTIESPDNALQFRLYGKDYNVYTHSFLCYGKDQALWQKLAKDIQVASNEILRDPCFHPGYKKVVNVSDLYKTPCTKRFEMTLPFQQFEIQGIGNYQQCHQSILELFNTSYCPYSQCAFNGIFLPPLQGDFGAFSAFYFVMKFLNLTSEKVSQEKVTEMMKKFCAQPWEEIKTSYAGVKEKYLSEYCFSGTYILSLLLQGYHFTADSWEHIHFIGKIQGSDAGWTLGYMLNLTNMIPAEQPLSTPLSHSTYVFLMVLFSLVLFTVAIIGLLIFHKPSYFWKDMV

B1: CD39/CD73 bispecific antibody 700035 (CD39-VHH-CD73-IgG) (bispecific antibody)
heavy: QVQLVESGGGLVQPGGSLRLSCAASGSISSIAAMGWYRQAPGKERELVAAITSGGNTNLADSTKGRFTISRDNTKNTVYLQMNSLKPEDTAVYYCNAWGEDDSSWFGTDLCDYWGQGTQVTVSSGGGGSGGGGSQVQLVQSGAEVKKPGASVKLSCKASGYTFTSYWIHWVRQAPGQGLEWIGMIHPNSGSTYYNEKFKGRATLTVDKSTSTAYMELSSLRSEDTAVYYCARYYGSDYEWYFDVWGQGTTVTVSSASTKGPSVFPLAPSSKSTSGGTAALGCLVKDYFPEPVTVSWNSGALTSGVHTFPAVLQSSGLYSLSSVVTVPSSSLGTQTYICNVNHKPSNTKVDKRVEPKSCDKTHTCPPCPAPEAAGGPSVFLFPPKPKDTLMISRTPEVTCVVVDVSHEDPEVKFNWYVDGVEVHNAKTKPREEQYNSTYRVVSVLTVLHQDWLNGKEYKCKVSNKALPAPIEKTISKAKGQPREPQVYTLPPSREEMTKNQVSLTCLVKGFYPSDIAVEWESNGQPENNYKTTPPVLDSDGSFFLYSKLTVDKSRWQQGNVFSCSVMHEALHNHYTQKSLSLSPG
light: DIQMTQSPSSMSASVGDRVTITCKASQNVRTAVVWYQQKPGKAPKALIYLASNRHTGVPDRFSGSGSGTDFTLTISSLQPEDFATYFCLQHWNYPYTFGQGTKLEIKRTVAAPSVFIFPPSDEQLKSGTASVVCLLNNFYPREAKVQWKVDNALQSGNSQESVTEQDSKDSTYSLSSTLTLSKADYEKHKVYACEVTHQGLSSPVTKSFNRGEC
Kd [1]: 2.61 nM
koff [1]: 0.00161 s⁻¹
kon [1]: 618000 M⁻¹ s⁻¹
Kd [2]: 0.341 nM
koff [2]: 0.000319 s⁻¹
kon [2]: 935000 M⁻¹ s⁻¹
Kd [3]: 0.0708 nM
koff [3]: 9.28e-05 s⁻¹
kon [3]: 1.31e+06 M⁻¹ s⁻¹
EC50 (µg/mL), inhibition of CD39 ATPase activity on CHOK1-huCD39-10B6 cells (CellTiter Glo) [4]: 0.208 µg/mL

B2: CD39/CD73 bispecific antibody 700038 (CD39-VHH-CD73-IgG) (bispecific antibody)
heavy: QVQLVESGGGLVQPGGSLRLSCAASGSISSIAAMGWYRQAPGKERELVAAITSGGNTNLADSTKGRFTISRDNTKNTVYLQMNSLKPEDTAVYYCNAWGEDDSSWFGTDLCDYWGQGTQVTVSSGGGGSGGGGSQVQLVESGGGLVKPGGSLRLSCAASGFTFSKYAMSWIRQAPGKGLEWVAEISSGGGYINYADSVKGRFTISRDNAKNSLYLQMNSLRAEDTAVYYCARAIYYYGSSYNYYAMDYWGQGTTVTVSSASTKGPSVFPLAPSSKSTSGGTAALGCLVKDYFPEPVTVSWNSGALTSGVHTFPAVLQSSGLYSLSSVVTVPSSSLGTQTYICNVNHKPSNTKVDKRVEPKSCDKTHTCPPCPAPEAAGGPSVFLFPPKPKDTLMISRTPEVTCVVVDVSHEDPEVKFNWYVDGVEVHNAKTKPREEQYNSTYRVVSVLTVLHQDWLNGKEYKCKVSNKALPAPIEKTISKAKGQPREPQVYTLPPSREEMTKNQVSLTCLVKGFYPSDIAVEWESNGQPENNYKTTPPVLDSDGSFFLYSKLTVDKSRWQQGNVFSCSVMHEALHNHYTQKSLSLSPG
light: DIQMTQSPSSLSASVGDRVTITCRASQDVGTAEAWYQQKPGKAPKLLIYWASTRHTGVPSRFSGSGSGTDFTLTISSLQPEDFATYYCQQYSSYPLTFGQGTKLEIKRTVAAPSVFIFPPSDEQLKSGTASVVCLLNNFYPREAKVQWKVDNALQSGNSQESVTEQDSKDSTYSLSSTLTLSKADYEKHKVYACEVTHQGLSSPVTKSFNRGEC
Kd [1]: 2.69 nM
koff [1]: 0.00163 s⁻¹
kon [1]: 606000 M⁻¹ s⁻¹
Kd [2]: 0.425 nM
koff [2]: 0.000249 s⁻¹
kon [2]: 587000 M⁻¹ s⁻¹
Kd [3]: 0.0918 nM
koff [3]: 9.54e-05 s⁻¹
kon [3]: 1.04e+06 M⁻¹ s⁻¹
EC50 (µg/mL), inhibition of CD39 ATPase activity on CHOK1-huCD39-10B6 cells (CellTiter Glo) [4]: 0.187 µg/mL
